Test results reported in US20110003753A1, “COMPOSITIONS AND METHODS FOR DISRUPTING THE FUNCTION OF THE TRANSCRIPTIONAL REPRESSOR COMPONENT Sin3A-PAH2 DOMAIN TO INDUCE DIFFERENTIATION AND GROWTH INHIBITION IN BREAST CANCER” (SAMUEL WAXMAN CANCER RESEARCH FOUNDATION, priority 2009, published 2011).

Tests used:
[1] = target: T1, PAH2 domain of Sin3A and MAD (Mus musculus, UniProt Q60520); assay: GST pull-down of MAD by the Sin3A PAH2 domain; format: binding
T1 construct: amino acids 306-450 of mSin3A; made in house; host or cells: E. coli (GST-PAH2); MAD from rabbit reticulocyte in vitro translation or immunoprecipitated from MDA-MB-231 lysate
T1 sequence (Q60520 306-450): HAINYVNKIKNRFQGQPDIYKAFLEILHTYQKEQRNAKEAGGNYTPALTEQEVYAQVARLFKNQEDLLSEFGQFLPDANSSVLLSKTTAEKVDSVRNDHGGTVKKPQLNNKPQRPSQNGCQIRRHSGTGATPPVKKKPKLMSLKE
Source text: FIG. 2: SID decoy peptide blocks interactions between Sin3 PAH2 and MAD and interferes with recruitment of members of the Sin3 co-repressor complex. A. GST pull-down of MAD by the Sin3A PAH2 domain is blocked by SID peptide. Sin3A PAH2 domain (amino acids 306-450) was expressed in E. coli as a GST fusion and used in a pull down assay for in vitro interaction with 35S-methionine labeled MAD (left panel) or MAD immunoprecipitated from MDA-MB-231 cell lysates (right panel). 25% of input is shown for in vitro translated MAD and 10% of input for immunoprecipitated MAD (input). Assays were performed using 15 μM Tat-SID or Tat-SID^SCR peptide unless otherwise indicated. […]
GST pull-down assays were performed using the ProFound™ pull-down GST protein:protein interaction kit (Pierce) according to the manufacturer's instructions. […] Gels containing samples from MDA-MB-231 cell lysates were analyzed by Western immunoblot according to standard protocols. Pulled-down MAD was detected using mouse monoclonal anti-MAD (F-1) antibody (Santa Cruz), anti-mouse secondary antibody (Jackson ImmunoResearch), and enhanced chemiluminescence (ECL, Peirce).

MDA-MB-231 cells = assay: Three-dimensional morphogenesis assay in Matrigel; format: cell-based, human; conditions: 5 μM peptide, Matrigel 3D culture
Protocol: FIG. 3: A. Morphogenesis in 3D cultures in Matrigel. MDA-MB-231 and MMTV-Myc cells expressing SID or the double mutant were cultured in 3D-Matrigel for 14 days. […] B. Reversion of the invasive phenotype of the MDA-MB-231 cells in Matrigel 3D cultures. Upper panel indicates change in numbers of invasive versus non invasive colonies (as indicated in crosshatched and non-crosshatched bars, respectively) in the presence of different concentrations (as indicated) of cell penetrating SID or SID^SCR (scrambled control) peptide. The colonies were counted after 10 days of treatment with a medium containing fresh peptide changed every 24 hours. […] The reduction in invasive phenotype was quantified by counting 5 low magnification fields per well done in triplicates (upper panel). The p value was calculated using the unpaired Student t test.
3D cultures of MDA-MB-231 and MMTV-Myc cells stably transfected with pEGFP-SID, pEGFP-SID2Mut or the parent vector pEGFP-N3 were prepared as described by Debnath et al. (Debnath et al2003). Briefly, […] of growth factor depleted Matrigel (BD Biosciences) was applied on 8-well multichamber slides (BD Biosciences) and incubated at 37° C. for 30 minutes. Once the Matrigel solidified 5×10^3 cells were seeded on top of the gels in assay medium containing 2% Matrigel and 20 ng/ml […]. Growth medium was changed daily for 14 days. Once colony formation was evident, the SID or the scramble control peptide was added to the MDA-MB-231 parental cells in the medium starting at day 3. The morphology of the colonies was determined by confocal microscopy. Induction of apoptosis was determined by staining colonies with activated caspase-3 antibody (BD Transduction Labs) and cell polarization by staining with anti-GM130 antibody (BD Transduction Labs). Cell nuclei were visualized by DAPI (Sigma) staining. […]

## YGRKKRRQGGGVRMNIQMLLEAADYLERRER [SID peptide]
[1]; 35S-methionine labeled MAD, 15 μM peptide unless otherwise indicated
  blocking of interaction between PAH2 domain of Sin3A and in vitro translated MAD: blocked interactions
[1]; MAD immunoprecipitated from MDA-MB-231 cell lysates, 15 μM peptide
  blocking of interaction between PAH2 domain of Sin3A and MAD immunoprecipitated from MDA-MB-231 cells: blocked interactions
MDA-MB-231 cells
  number and size of the colonies: reduced
MDA-MB-231 cells; colonies counted after 10 days of treatment
  decrease in number of colonies with invasive phenotype: ~80%
